Broadly, the EC50 is the concentration giving half of the maximal effect.

We go through three molecules from patent US20240124590A1 (ULTRAHUMAN EIGHT, published 2024).

Read-outs that look alike come from different tables or passages of the source.

Test [1] deals with T1, cynomolgus monkey PD1 human Fc tagged recombinant protein (cynomolgus monkey, UniProt Q15116 25-170 (human entry), limits assumed).
T1 construct: also called cyPD1-Fc; cyPD-1-Fc; not shown: human Fc tag
T1 chain: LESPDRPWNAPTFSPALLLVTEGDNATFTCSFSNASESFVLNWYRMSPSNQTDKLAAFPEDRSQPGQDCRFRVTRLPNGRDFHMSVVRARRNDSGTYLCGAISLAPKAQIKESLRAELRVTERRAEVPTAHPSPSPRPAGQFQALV
Description: direct ELISA, IgG1null on coated PD1-Fc. The procedure:
(§1) Binding and cross-reactivity of the lead panel to the recombinant proteins was initially assessed by binding ELISA. The human PD1 human Fc tagged recombinant protein and the cynomolgus monkey PD1 human Fc tagged recombinant protein were coated to the surface of MaxiSorp™ flat-bottom 96 well plate at 1 μg/ml. […] The Fabs were detected using mouse anti-c-myc antibody followed by donkey anti-mouse IgG conjugated to horseradish peroxidase. The IgGs were detected using the mouse anti-human IgG conjugated to horseradish peroxidase. Binding signals were visualized with 3,3′,5,5′-Tetrannethylbenzidine Substrate Solution (TMB) and the absorbance measured at 450 nm.
(§2) The purified IgGs described above were then tested for binding to human and cyno PD1-Fc in direct titration ELISA format. […] As the ELISA EC50 values for directly binding IgGs are strongly influenced by avidity, rather than true 1:1 binding affinity, we then proceeded to perform higher-sensitivity, solution-phase epitope competition and Biacore binding affinity determinations, as outlined below.

Test [2] deals with T2, human PD1 human Fc tagged recombinant protein (human, UniProt Q15116 25-170, limits assumed).
T2 construct: also called huPD1-Fc; huPD-1-Fc; not shown: human Fc tag
Put plainly: direct ELISA, IgG1null on coated PD1-Fc. How it is done:
as §1, §2
Background: ELISA stands for enzyme-linked immunosorbent assay.

In test [3] the target is T3, recombinant ectodomain of human FZD5 (human, UniProt Q13467 27-167, limits assumed).
T3 construct: whole entry named
T3 sequence: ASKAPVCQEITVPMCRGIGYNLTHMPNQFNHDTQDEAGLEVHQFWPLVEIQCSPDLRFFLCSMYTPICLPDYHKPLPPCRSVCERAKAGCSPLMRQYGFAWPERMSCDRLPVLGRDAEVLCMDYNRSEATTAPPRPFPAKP
Description: direct ELISA.

Test [4] addresses T4, recombinant ectodomain of rhesus VEGFR2 (rhesus).
T4 construct: whole entry named
T4 chain: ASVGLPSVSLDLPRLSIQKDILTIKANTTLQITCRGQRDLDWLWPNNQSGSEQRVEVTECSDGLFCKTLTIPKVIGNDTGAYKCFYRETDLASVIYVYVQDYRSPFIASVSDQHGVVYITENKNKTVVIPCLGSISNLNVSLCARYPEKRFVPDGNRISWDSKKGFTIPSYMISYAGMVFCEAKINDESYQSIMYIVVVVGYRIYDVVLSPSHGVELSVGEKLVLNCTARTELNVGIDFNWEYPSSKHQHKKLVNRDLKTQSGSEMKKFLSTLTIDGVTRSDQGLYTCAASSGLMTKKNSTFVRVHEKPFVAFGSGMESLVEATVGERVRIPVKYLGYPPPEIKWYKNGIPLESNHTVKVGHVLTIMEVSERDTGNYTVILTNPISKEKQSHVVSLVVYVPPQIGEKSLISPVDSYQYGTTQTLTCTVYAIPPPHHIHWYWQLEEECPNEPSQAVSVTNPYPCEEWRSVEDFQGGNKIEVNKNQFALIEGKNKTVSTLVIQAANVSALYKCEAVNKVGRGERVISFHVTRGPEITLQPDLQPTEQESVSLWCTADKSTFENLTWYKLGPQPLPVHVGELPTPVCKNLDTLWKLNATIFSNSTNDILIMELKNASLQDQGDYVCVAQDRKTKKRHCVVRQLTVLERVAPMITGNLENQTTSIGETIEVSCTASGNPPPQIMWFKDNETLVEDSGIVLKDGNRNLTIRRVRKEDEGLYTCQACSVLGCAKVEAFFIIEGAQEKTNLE
Put plainly: direct ELISA.

The next test concerns the target T5, BSA protein (UniProt P02769 25-607).
T5 construct: Negative-control coat of the ELISA
Description: direct ELISA.

The target of test [5] is T1, cynomolgus monkey PD1 human Fc tagged …. Put plainly: direct ELISA, IgG1null on coated PD1-Fc. The procedure:
as §1, §2

Test [6] has as its target T2, human PD1 human Fc tagged recombinant …. Put plainly: direct ELISA, IgG1null on coated PD1-Fc. The procedure:
as §1, §2
The source holds these as a separate data set.

T5 sequence (P02769 25-607 limits assumed): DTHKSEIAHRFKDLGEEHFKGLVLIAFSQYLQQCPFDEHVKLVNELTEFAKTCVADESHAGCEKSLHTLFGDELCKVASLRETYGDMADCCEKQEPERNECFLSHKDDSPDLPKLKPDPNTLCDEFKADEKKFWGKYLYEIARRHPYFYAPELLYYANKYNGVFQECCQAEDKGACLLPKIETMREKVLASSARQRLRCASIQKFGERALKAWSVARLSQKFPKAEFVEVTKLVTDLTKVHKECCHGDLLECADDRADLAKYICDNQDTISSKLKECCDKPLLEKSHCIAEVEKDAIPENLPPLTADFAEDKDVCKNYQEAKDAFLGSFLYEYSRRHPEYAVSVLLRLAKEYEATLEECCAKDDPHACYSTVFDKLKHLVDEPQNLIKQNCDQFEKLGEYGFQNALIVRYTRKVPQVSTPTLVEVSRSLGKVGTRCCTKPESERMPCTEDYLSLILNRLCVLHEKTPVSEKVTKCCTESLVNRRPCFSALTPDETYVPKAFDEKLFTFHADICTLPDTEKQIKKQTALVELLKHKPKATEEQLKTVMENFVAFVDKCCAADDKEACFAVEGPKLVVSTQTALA
T2 sequence (Q15116 25-170 limits assumed): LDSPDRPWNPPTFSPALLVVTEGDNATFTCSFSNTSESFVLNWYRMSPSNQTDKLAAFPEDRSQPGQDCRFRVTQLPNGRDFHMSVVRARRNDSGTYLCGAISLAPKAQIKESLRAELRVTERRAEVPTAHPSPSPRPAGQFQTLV

B1: IgG1-08 (antibody, V domains shown)
VH: EVQLVESGGGLVQPGGSLRLSCAASGFTFSSYLMSWVRQAPGKGLEWVATISGGGSEKYYVDSVKGRFTISRDNAKNSLYLQMNSLRAEDTAVYYCARQLYGFDYWGQGTLVTVSS
VL: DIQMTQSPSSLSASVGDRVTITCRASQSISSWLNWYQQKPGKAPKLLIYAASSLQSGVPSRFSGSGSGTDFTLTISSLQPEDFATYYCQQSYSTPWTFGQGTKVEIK
notes: Designer; human IgG1null + Ckappa; also called Antibody IgG1-08; MAB08
Consider B1, for which the figures for the EC50 in test [1] and in test [2] were 77.1 pM and 134 pM, respectively. In addition, the binding result (in test [3]; in test [4]; with BSA protein) was “no binding” throughout.

B2: IgG1-06D02 (antibody, V domains shown)
VH: EVQLVESGGGLVQPGGSLRLSCAASGFTFSSYLMSWVRQAPGKGLEWVATISGGGSETYYVDSVKGRFTISRDNAKNSLYLQMNSLRAEDTAVYYCARQLYGFDYWGQGTLVTVSS
VL: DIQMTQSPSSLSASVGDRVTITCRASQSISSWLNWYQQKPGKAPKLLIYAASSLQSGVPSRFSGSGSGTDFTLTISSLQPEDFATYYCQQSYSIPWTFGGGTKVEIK
notes: Library-derived; human IgG1null + Ckappa; also called Clone 06D02
For the molecule B2, the EC50 in test [5] turned out to be 104 pM; in test [6], 65 pM. Further, the binding result (in test [3]; in test [4]; with BSA protein) was “no binding” each time.

B3: IgG1-05 (antibody, V domains shown)
VH: EVQLVESGGGLVQPGGSLRLSCAASGFTFSSYLMSWVRQAPGKGLEWVATISGGGSEKYYVDSVKGRFTISRDNAKNSLYLQMNSLRAEDTAVYYCARQVYYFDYWGQGTLVTVSS
VL: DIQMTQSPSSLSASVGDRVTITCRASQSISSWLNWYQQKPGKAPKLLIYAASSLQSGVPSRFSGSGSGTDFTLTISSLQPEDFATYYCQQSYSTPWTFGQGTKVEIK
notes: Designer; human IgG1null + Ckappa; also called Antibody IgG1-05
On to B3, for which the EC50 was 135 pM in test [1] and 121 pM in test [2]. Moreover, the binding result (in test [3]; in test [4]; with BSA protein) was “no binding” throughout.
